In a protein production outcome set (Wang et al. 2014):

Test: label from the status in PepcDB records
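Also: failed if final PepcDB status was selected cloned or expressed and not failed if soluble or beyond.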

Sequence	protein production
MKGGLYMKLTKKQLKEYIEDYKKSDDILINLYIETYEFYCRLRDELKNSDLMIEHTNKAGASNIVKNPLSIELTKTVQTLNNLLKSMGLTAAQRKKIVQEEGGFGDY	failed
MIYLHAIDPIAFSLGPVKVHWYGLMYLAGFGAAWCLGRQRIQAGRLLGVNIDGFSDLLFYAMMGVVLGGRVGYMLFYAFHDFLQEPLLLFRVWEGGMSFHGGLIGVLLAVAWWSRRQRMHMFDVVDFCAPLVPVGLGFGRLGNFIGGELWGKLTHNGWGVIFPRAPLSDVPAGQLAMQDVINFVQIQEHYAAGLLGHYARHPSQLYEAFLEGLVMFIVLWLFSRKPRPRYAVSGLFALLYGVFRFLVEFVRMPDNGVYVAFGWLTRGQILSLPLIVIGLFLFWLSCRSPVLQPVPAPEVAK	failed
MSKENPLKFLGIGSAFNPNYNNTSAYFELEDNLFLIDCGGGIFNSLLSLKLLEKYLHLNVLITHTHPDHIASLGQLILYCYYQLNKKITLIFPQSEIILNLLDYMGIRNDIYILKTPQDFVNYLSKLTVISLEQVHVNELPCFGYLIYLNNVTFYYSGDSKSIPLYILTKFLEGEIDFLFQDTCSENHNHHPHLSIKELSEQIPPSKRKQVYCMHIDEKFDVNLAKNLGFNIPQEIIVERDAK	failed
MNIELFIQRAEALHKQLADLYQTASVLPWIPPDLLPQAFKELYSNSKLVQLAAEELYHQNEELIQTRSLLEAERQHYHDLFEFAPDGYLVTNAEGIIQEANLTATKLFNAPKHILVDRSVINFIRLEERESFHCELNQLFQTDKAKKLIVRLHQFHGESFDALLTISVVRSQNGKIKSLHWLLSHINENQQQSLGLVNHENYLSQNRPVYVYAKGENIPLNPLVIWYVRQGLVKLSTFCETGEEVLTGLAKTHMVFGSSMTKLPIYQATALADVELVSINFAEIAVSQMLSHILLPKINQQLQQKESFLVITGRRKIEDRLYHLLQFLKQEIGEPVGEKTRLSVRFTHEDIASACCTTRVTITRLMGKLQQQGLISFDSKKHMIINKRLEDRE	failed
MGHHHHHHSHMKALLSIEMDMQVPFHDVDSMGITWHGNYLRYFEVARCKLLDELGYNYRQMRASNYAWPIIDVQIKYVKPSTFEQHITVRAELVEWENRLKINYQIRDTATGERITKGYTIQAAVDMTSQEMCFVTPEVFRSKIAPLLAKVDNE	not failed
ESEPYVRLTTLRQLHQVMADMNTARSLADTLQTVADGVVNGLGYELACVNLVRPDGDLVVAAFAGNSAAEALITGRVGSRVSWDRRLDMGEAWGDLRFIPHTEGWVLDEDDVPQWYTDGPEPRFEDEWHPSDRLFAPMYTPGVQGASCGELIGVLSVDRPRNGRKPGAWGREALQMYAFQAAIAISNARLRANMQRALVRLEREQQALRASEESFRQAFEYAPS	failed
IGPPESWPQALKTAVRIMLTSQQPIWIGWGTELTYLYNDPYKSIIGGKHPWALGRPTSEVWSEIWEDIAPLLAKATSGHEGTYVEAQLLIMERNGFPEETYYTFSYSPIPTDDGSPGGIFCANTDDTQRVITERQLSLLRDLAASAAESRS	failed
MKKILAFLLIAAGSTLFFVFLFIFLSKVFSGEILLSRYIFRIGGFELRWYSTLILMGFLISYFVARKRAKNEGINLEEFDELIFYGVIAGIVGARLYYVLFNLKYYRSLWDALKIWEGGLAIHGAVIGALLTGFLYVRLKKPSFTFLQATDLFTSVLPLGQAIGRWGNFFNYEAFGVPTNLPWKMFVPEPYRPVVYKDYSFFHPTFLYESIWDLLVFFMLSVYFKRYRKRHGEVTCLYFVLYSLGRIVIERLRVDSLMIGNIKAAQLLSAVLILLGFTGFLILRSSQEPKRAF	failed
GPGSMSLKVNILGHEFSNPFMNAAGVLCTTEEDLRRMTESESGSLIGKSCTLAPRTGNPEPRYFGLPLGSINSMGLPNLGVDFYLSYAAQTHDYSRKPLFLSMSGLSVEESVEMVKKLAPITKEKGTILELNLSCPNVPGKPQVGYDFDTTRTYLQKVSEAYGLPFGVKMPPYFDIAHFDMAAAVLNDFPLVKFITCVNSIGNGLVIDPANETVVIKPKQGFGGLGGKYVLPTALANVNAFFRRCPDKLVFGCGGVYSGEEAFLHILAGASMVQVGTALHDEGPIIFARLNKELQEIMTNKGYKTLDEFRGRVKTMD	not failed
MSQAISLNQSTWASKLKAMGPGILMATAAVGGSHIVSSTQAGGSYGWSLLLLVILANVFKYPFFRFGAEYTADTGKTLVEGYAEKGKLYLWIFFILNVFSAMVNTAGVAILCSAIIASAFPMIGLSITQWSLILVAIIWAMLLFGGYKLLDGMVKWIMSALTIATVLAVIIAAVKHPEYSSDFVEKTPWQMAALPFIVSLLGWMPAPIEISAINSLWSAEKRKTVNFNTEDALFDFNTGYIGTAILAVFFVALGALIQYPTGQAVEAASAKYISQFVGMYASVLGEWSRYLITFIAFLCIFGTVITVIDGYSRVNQESLRLLISQKEDNRKSLNIWMTITAIIGIVIIKFFAGQVSTMLRFAMIGSFLTTPFFALLNYALVTRENKNLPSWLKHLAIAGLIFLFGFAIFFIYALAIGKAG	failed
MSDHPGPGAVTPELFGVGGDWLAVTAGESGASVFRAADATRYAKCVPAADAAGLEAERDRIAWLSGQGVPGPRVLDWYAGDAGACLVTRAVPGVPADRVGADDLRTAWGAVADAVRRLHEVPVASCPFRRGLDSVVDAARDVVARGAVHPEFLPVEQRLVPPAELLARLTGELARRRDQEAADTVVCHGDLCLPNIVLHPETLEVSGFIDLGRLGAADRHADLALLLANARETWVDEERARFADAAFAERYGIAPDPERLRFYLHLDPLTWG	failed
MWQNFYLTTLKLSQYTQEEKPILPADNMDPRALASVHAWEHGDFMCKGYIQSRLSDPLYNVYSNVETSNELWDSLDKKYQTKDAGSQKYAAAKFLDYKMVDSRPMMVQVEELTCLFHDI	not failed
VINLKELKILHTSDWHLGVTSWTSSRPVDRREELKKALDKVVEEAEKREVDLILLTGDLLHSRNNPSVVALHDLLDYLKRMMRTAPVVVLPGNHDWKGLKLFGNFVTSISSDITFVMSFEPVDVEAKRGQKVRILPFPYPDESEALRKNEGDFRFFLESRLNKLYEEALKKEDFAIFMGHFTVEGLAGYAGIEQGREIIINRALIPSVVDYAALGHIHSFREIQKQPLTIYPGSLIRIDFGEEADEKGAVFVELKRGEPPRYERIDASPLPLKTLYYKKIDTSALKSIRDFCRNFPGYVRVVYEEDSGILPDLMGEIDNLVKIE	not failed
MGSYQLLVPPPEALSKPLSVPTRLLLGPGPSNLAPRVLAAGSLRMIGHMQKEMLQIMEEIKQGIQYVFQTRNPLTLVVSGSGHCAMETALFNLLEPGDSFLTGTNGIWGMRAAEIADRIGARVHQMIKKPGEHYTLQEVEEGLAQHKPVLLFLVHGESSTGVVQPLDGFGELCHRYQCLLLVDSVASLGGVPIYMDQQGIDIMYSSSQKVLNAPPGISLISFNDKAKYKVYSRKTKPVSFYTDITYLAKLWGCEGETRVIHHTTPVTSLYCLRESLALIAEQGLENCWRRHREATAHLHKHLQEMGLKFFVKDPEIRLPTITTVTVPAGYNWRDIVSYVLDHFSIEISGGLGPTEERVLRIGLLGYNATTENVDRVAEALREALQHCPKNKL	not failed
RGSRFTWRKECLAVMESYFNENQYPDEAKREEIANACNAVIQKPGKKLSDLERVTSLKVYNWFANRRKEIKRRANIAAILES	not failed
MKFSVLMSLYIKENPQFLRECFESLVAQTRQADEIVLVFDGVVTPDLEFVVTEFETKLPLKLVKLPQNRGLGKALNEGLLHCDYDWVFRMDTDDICVPDRFEKQVAFIEQHPESIIFGGQIAEFGKNVNDIVAYRNVPTSAQEIIKFTQKRCPFNHMTVAYQKSAVINCGGYEDLQEDYYLWIKLVAQGLYMANLPDILVYARVGNGMVLEHHHHHH	not failed
MKLNATYIKIRDKWWGLPLFLPSLILPIFAHINTFAHISSGEVFLFYLPLALMISMMMFFSWAALPGIALGIFVRKYAELGFYETLSLTANFIIIIILCWGGYRVFTPRRNNVSHGDTRLISQRIFWQIVFPATLFLILFQFAAFVGLLASRENLVGVMPFNLGTLINYQALLVGNLIGVPLCYFIIRVVRNPFYLRSYYSQLKQQVDAKVTKKEFALWLLALGALLLLLCMPLNEKSTIFSTNYTLSLLLPLMMWGAMRYGYKLISLLWAVVLMISIHSYQNYIPIYPGYTTQLTITSSSYLVFSFIVNYMAVLATRQRAVVRRIQRLAYVDPVVHLPNVRALNRALRDAPWSALCYLRIPGMEMLVKNYGIMLRIQYKQKLSHWLSPLLEPGEDVYQLSGNDLALRLNTESHQERITALDSHLKQFRFFWDGMPMQPQIGVSYCYVRSPVNHIYLLLGELNTVAELSIVTNAPENMQRRGAMYLQRELKDKVAMMNRLQQALEHNHFFLMAQPITGMRGDVYHEILLRMKGENDELISPDSFLPVAHEFGLSSSIDMWVIEHTLQFMAENRAKMPAHRFAINLSPTSVCQARFPVEVSQLLAKYQIEAWQLIFEVTESNALTNVKQAQITLQHLQELGCQIAIDDFGTGYASYARLKNVNADLLKIDGSFIRNIVSNSLDYQIVASICHLARMKKMLVVAEYVENEEIREAVLSLGIDYMQGYLIGKPQPLIDTLNEIEPIRESA	failed
MTKLGYVMTKSSAKNFKIYINGSAKGFKNIIISGAKAWNPSPYLNTVSIGNDVRPNYTVSSSGTNKGSVLAVCNTTYYKSNKLISKNEITLYKGFRSLSTNHKIETIVHEFGHGFGLGHVKTKNAIMLDKGFINKTKPQTDDFNGIKALYKLEHHHHHH	not failed
HSGEDLPMVAPGNVRVNVVNSTLAEVHWDPVPLKSIRGHLQGYRIYYWKTQSSSKRNRRHIEKKILTFQGSKTHGMLPGLEPFSHYTLNVRVVNGKGEGPASPDRVFNTPEG	not failed
MRRFNTSQNKNERNLFNDYIKNEDELYDERDDEGINKEPISLKADVNNNFFPIDQIHSTYFLCNNLNNDNTEKEINEHISFEKIQDHEKEEKKKIFLFNLSDNQKKQIENLKINKIIQNEMYLKKNKILKYIIHIFISDILKEKPNDVYDYASNYFTQPQFKMYILEKLKLRINK	failed
MPNFSKNEEVLFSAVNEIFEEKIPFNKIIGLKVRFISPEQVKLSFEMRDELIGNAIRRMLYGGVISSAIDMTAGLAAFMGFQEKMSGKPMEEKLAMIGRLSTMSLHVEYLRPGLGREFVCTGYNVRTGNKVAVIRTELMNDQDELIAVGSVSYILV	not failed
MEFTTQHFIALAPMLITTITTVVVMLAIAWKRNHSQTFLLSTVGLNLALLSLLPALKVAPLAVTSLITIDKFACLYMAIILVATLACVTLAHAYLGEGAKGFPGNREELYLLLLMSALGGLVLVSANHLAGLFIGLELLSVPVYGLVAYAFFNKRSLEAGIKYMVLSAAGSAFLLFGMALLYADAGSLSFDQIGKALATTSMPSLVAQLGLGMMLVGLAFKLSLVPFHLWTPDVYEGAPAPVAAFLATASKVAVFAVVVRLFMLSPAASSGVLSTVLAVIAVASILIGNLLALTQSNLKRLLGYSSIAHFGYLVIALVASKGLALEAMGVYLVTYVITSLGAFGVITLMSSPYGGRDADALYEYRGLFWRRPYLTAVLTVMMLSLAGIPLTAGFIGKFYIIATGVESHLWWLVGALVIGSAIGVYYYLRVMVTLYLVEPNLRRHDAPLKWEQRTGGVMLLAIAILAFVLGVYPQPLLEMVQQAGLQLIG	failed
MQFPSIEDLRARNTMKWTRYGQGVLPLWVAESDFSTCPAVLQAITDAVQREAFGYQPDGSLLSQATAEFYADRYGYQARPEWIFPIPDVVRGLYIAIDHFTPAQSKVIVPTPAYPPFFHLLSATQREGIFIDATGGINLHDVEKG	failed
MGQAPDRPHLETFLARLRAGAKILELGCGGGQDSEYMLSAGFDVHPTDGTPDIAKAAQARLGIPVRTLLFENIEDAALYDAVWANACLLHVPRLALPGIIGRIHTALKPGGVFYASFKAGEVEGRDTFGRYYNYPSKAWLEETYGQFAWTEVEIEARQGSGYDKLPTDWLHVTATKALEHHHHHH	failed
